The source of these data is the RNAGym collection of RNA variant scans (doi:10.1073/pnas.2313332121).

B1: TPR t1 (parent)
chain: GACCAAUCUGCCCUCAGAGCUCGAGAACAUCUUCGGAUGCAGAGGAGGCAGGCUUCGGUGGCGCGAUAGCGCCAACGUCCUCAACCUCCAAUGCAUCCCACCACAUGAUGAUGCCUGAAGAGCCUUGGUUUUUUG

In this series the parent is B1. Description: polymerase ribozyme fitness, log enrichment relative to wild type (log ratio); higher = more active; in vitro selection for triplet polymerase activity. In a few lines:
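Only genotypes with ≥10 input reads and ≥1 read per output were kept after Illumina sequencing of input and output libraries. These libraries were PCR-built, transcribed mutants of each subunit of a heterodimeric triplet polymerase ribozyme, each put through one triplicate in vitro selection round with frozen incubation at −7 °C, gel excision of extended constructs, streptavidin-bead capture and RT-PCR. Fitness is a logarithmic ratio of genotype enrichment to wild-type enrichment, from inverse-variance-weighted replicate averages, with the logarithm in base 2.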
Regarding GACCAAUCUGCCCUCAGAGCUCGAGAACAUCUUCGGAUGCAGAGGAGGCAGGCUUCGGUGGCCCGAUAGCGCCAACCUCCUCAACCUCCAAUGCAUCCCACCACAUGAUGAUGCCUGAAGAGCCUUGGCUUUUUG [G63C G77C U129C], the “polymerase ribozyme fitness (log ratio)” value was -3.13. The figure for GACCAAUCUGCCCUCAGAGCUCGAGAACAUCUUCGGAUGCAGAGGAGGCAGGCUUCGGUGGCCCGAUAGCGCCAACGGCCUCAACCUCCAAUGCAUCUCACCACAUGAUGAUGCCUGAAGAGCCUUGGUUUUUUG [G63C U78G C98U] is -2.14; for GACCAAUCUGCCCUCAGAGCUCGAGAACAUCUUCGGAUGCAGAGGAGGCAGGCUUCGGUGGCACGAUAGCGCCAACGCCCUCAACCUCCAAUGCGUCCCACCACAUGAUGAUGCCUGAAGAGCCUUGGUUUUUUG [G63A U78C A95G] it is -0.717.

For GACCAAUCUGCCCUCAGAGCUCGAGAACAUCUUCGGAUGCAGAGGAGGCAGGCUUCGGUGGCCCGAUAGCGCCAACGUCCUCAACCUCCAAUGCAUCCCACCACAUGAUGUUGCCUGAAGAGCCUUGGUUUUUUG [G63C A111U], the “polymerase ribozyme fitness (log ratio)” value is -3.26.

With GACCAAUCUGCCCUCAGAGCUCGAGAACAUCUUCGGAUGCAGAGGAGGCAGGCUUCGGUGGCACGAUAGCGCCAACGUCCUCAACCUCCAAUGCAGCCCACCACAUGAUGAAGCCUGGAGAGCCUUGGUUUUUUG [G63A U96G U112A A118G], the “polymerase ribozyme fitness (log ratio)” value is -1.58. GACCAAUCUGCCCUCAGAGCUCGAGAACAUCUUCGGAUGCAGAGGAGGCAGGCUUCGGUGGCCCGAUAGCGCCAACGUCCUCAACCUCCAAUGCAUCCCACCACAUGAUGAUGUCUGAAGAGCCUUGGUUUUUUG [G63C C114U]: the “polymerase ribozyme fitness (log ratio)” value was -2.19. Take GACCAAUCUGCCCUCAGAGCUCGAGAACAUCUUCGGAUGCAGAGGAGGCAGGCUUCGGUGGCCCGAUAGCGCCAACGUCCUCAACCUCCAAUGCAUCCCACCACAUGAUGAUGACUGAAGAGCCUUGGUUUUUUG [G63C C114A]: the “polymerase ribozyme fitness (log ratio)” value is -2.44. As to GACCAAUCUGCCCUCAGAGCUCGAGAACAUCUUCGGAUGCAGAGGAGGCAGGCUUCGGUGGCCCGAUAGCGCCAACGUCCUCAACCUCCAAUGCAUCCCACCACAUGAUGAUGUCUGCAGAGCCUUGGUUUUUUG [G63C C114U A118C], the “polymerase ribozyme fitness (log ratio)” value is -3.66. Regarding GACCAAUCUGCCCUCAGAGCUCGAGAACAUCUUCGGAUGCAGAGGAGGCAGGCUUCGGUGGCCCGAUAGCGCCAACGUCCUCAACCUCCAAUGCAUCUCACCACAUGAUGAUGCCUGAAGAGCCUUGGUUUUUUG [G63C C98U], the “polymerase ribozyme fitness (log ratio)” value is -2.15. Regarding GACCAAUCUGCCCUCAGAGCUCGAGAACAUCUUCGGAUGCAGAGGAGGCAGGCUUCGGUGGCCCGAUAGCGCCAUCGUCCUCAACCACCAAUGCAUCCCACCACAUGAUGAUGCCUGAAGAGCCUUGGUUUUUUG [G63C A75U U87A], the “polymerase ribozyme fitness (log ratio)” value was -0.774.

With GACCAAUCUGCCCUCAGAGCUCGAGAACAUCUUCGGAUGCAGAGGAGGCAGGCUUCGGUGGCCCGAUAGCGCCAACGUCCUCAACCUCCAAUACAUCCCACCACAUGAUGAUGCCUGAAGAGCCUUGGUUUUUUG [G63C G93A], the “polymerase ribozyme fitness (log ratio)” value is -1.12.

On to GACCAAUCUGCCCUCAGAGCUCGAGAACAUCUUCGGAUGCAGAGGAGGCAGGCUUCGGUGGCACGAUAGCGCCAACGUCCUCAACCUCCAAUGCAUCCCACCACAUGAUGAUGCCUGAAGAGCCUUGGUUUAUUG [G63A U132A], for which the “polymerase ribozyme fitness (log ratio)” value is -0.756. Regarding GACCAAUCUGCCCUCAGAGCUCGAGAACAUCUUCGGAUGCAGAGGAGGCAGGCUUCGGUGGCCCGAUAGCGCCAACGUCCUCAACCUCCAAUGCAUCCCACCACAUGAUGAUGCCUGAAGAGCAUUGGUUUUUUG [G63C C124A], the “polymerase ribozyme fitness (log ratio)” value came out at 0.234. GACCAAUCUGCCCUCAGAGCUCGAGAACAUCUUCGGAUGCAGAGGAGGCAGGCUUCGGUGGCACGAUAGCGCCAACGUCCUCAACCUCCAAUGCAUCCCACCACAUGAUGAAGCCUGAAGACCCUUGGUUUUUUG [G63A U112A G122C]: the “polymerase ribozyme fitness (log ratio)” value was -1.55. As for GACCAAUCUGCCCUCAGAGCUCGAGAACAUCUUCGGAUGCAGAGGAGGCAGGCUUCGGUGGCUCGAUAGCGCCAACGUCCUCACCCUCCAAUGCAUCCCACCACAUGAUGAUGCCUGAAGAGCCUUGGUUUUUUG [G63U A84C], the “polymerase ribozyme fitness (log ratio)” value was -1.52. With GACCAAUCUGCCCUCAGAGCUCGAGAACAUCUUCGGAUGCAGAGGAGGCAGGCUUCGGUGGCCCGAUAGCGCCAACGUCCUCAACCUCCAAUGCAUCCCACCACAUGAUGAUGCCUGAAGGGCCUUGGUAUUUUG [G63C A121G U130A], the “polymerase ribozyme fitness (log ratio)” value stood at 0.94. With GACCAAUCUGCCCUCAGAGCUCGAGAACAUCUUCGGAUGCAGAGGAGGCAGGCUUCGGUGGCCCGAUAGCGCCAACGUCCUCAACCUCAAAUGCAUCCCACCACAUGAUGAUGCCCGAAGAGCCUUGGUUUUUUG [G63C C89A U116C], the “polymerase ribozyme fitness (log ratio)” value was -3.78. For the variant GACCAAUCUGCCCUCAGAGCUCGAGAACAUCUUCGGAUGCAGAGGAGGCAGGCUUCGGUGGCCCGAUAGCGCCAACGUCCUCAACCUCCAAUGCAUCCCACCACAUGAUUAUGCCUGAAGAGCCUUGGUUUUUUG [G63C G110U], the “polymerase ribozyme fitness (log ratio)” value was -2.57.

GACCAAUCUGCCCUCAGAGCUCGAGAACAUCUUCGGAUGCAGAGGAGGCAGGCUUCGGUGGCACGAUAGCGCCAACGUCCUCAACCACCAAUGCAUCCCACCACAUGAUGAUGCCUGAAGAGCCUUGGUUUUUUG [G63A U87A]: the “polymerase ribozyme fitness (log ratio)” value is -1.03. Regarding GACCAAUCUGCCCUCAGAGCUCGAGAACAUCUUCGGAUGCAGAGGAGGCAGGCUUCGGUGGCUCGAUAGCGCCAACGUCCUCAACCUCCCAUGCAUCCCAACACAUGAUGAUGCCUGAAGAGCCUUGGUUUUUUG [G63U A90C C101A], the “polymerase ribozyme fitness (log ratio)” value was -4.63. The figure for GACCAAUCUGCCCUCAGAGCUCGAGAACAUCUUCGGAUGCAGAGGAGGCAGGCUUCGGUGGCACGAUAGCGCCAACGGCCUCAACCUCCAAUGCAUCCCACCACAUGAUGAAGCCUGAAGAGCCUUGGUUUUUUG [G63A U78G U112A] is -2.03.
